# The supplement of paper PMC7125110
# ± gives the standard error. For part of these data: Variants at the floor of the assay were thinned out.
# B1: glmS ribozyme (parent)
# chain: AUAAAAGCGCCAGAACUACAGAAAUGUAGUUGACGAGGAGGAGGUUUAUCGAAUUUUCGGCGGAUGCCUCCAAA
# Columns and labels:
# Details in all cases: with glucosamine-6-phosphate
# [1] = variants of: B1; test: kcat; higher = faster cleavage; RNA array
# Method in brief: (§1)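 kobs was derived by fitting per-tile medians to one- or two-exponential decays after normalising signals to baseline and to non-cleaving reference variants. Those signals came from barcoded ribozyme variants transcribed in situ by E. coli RNA polymerase on sequenced MiSeq chips, followed through a hybridised Cy3 probe at 37 °C and imaged over ~14 h. Glucosamine-6-phosphate (40 μM to 10 mM) in HEPES/KCl/Mg(OAc)2 buffer was flowed in. Weighted Michaelis–Menten fits across concentrations then gave kcat and KM.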
# [2] = variants of: B1; test: KM; higher = weaker cofactor use; RNA array
# Method in brief: as §1
# [3] = variants of: B1; test: self-cleavage kobs at 40 uM GlcN6P; higher = faster cleavage; RNA array
# Method in brief: as §1
# [4] = variants of: B1; test: self-cleavage kobs at 640 uM GlcN6P; higher = faster cleavage; RNA array
# Method in brief: as §1
# [5] = variants of: B1; test: self-cleavage kobs at 2500 uM GlcN6P; higher = faster cleavage; RNA array
# Method in brief: as §1
# [6] = variants of: B1; test: self-cleavage kobs at 10000 uM GlcN6P; higher = faster cleavage; RNA array
# Method in brief: as §1
# [7] = variants of: B1; test: self-cleavage kobs at 160 uM GlcN6P; higher = faster cleavage; RNA array
# Method in brief: as §1
Variant,kcat [1] [s⁻¹],KM [2] [µM],self-cleavage kobs at 40 uM GlcN6P [3] [s⁻¹],self-cleavage kobs at 640 uM GlcN6P [4] [s⁻¹],self-cleavage kobs at 2500 uM GlcN6P [5] [s⁻¹],self-cleavage kobs at 10000 uM GlcN6P [6] [s⁻¹],self-cleavage kobs at 160 uM GlcN6P [7] [s⁻¹]
U54A U65A,0.00834 ± 0.0013,4300 ± 1100,0.000105 ± 2.7e-05,0.00105 ± 0.00019,0.00254 ± 0.00097,0.00595 ± 0.00078,–
C50U A53C U54G,1.06e-05 ± 9.8e-07,–,–,–,–,< 1e-05,–
U57C C70U,0.00016 ± 1.8e-05,741 ± 210,–,7.23e-05 ± 9.1e-06,0.000137 ± 1.3e-05,0.000124 ± 2.4e-05,2.63e-05 ± 8.9e-06
U54C A64U,7.19e-05 ± 1e-05,–,–,–,5.96e-05 ± 1.3e-05,6.16e-05 ± 1.3e-05,–
U65A C68G,4.89e-05 ± 9e-06,–,–,6.22e-05 ± 1e-05,4.97e-05 ± 1.2e-05,3.81e-05 ± 7.3e-06,8.12e-05 ± 1.8e-05
G66U C67A,0.00338 ± 0.00094,3020 ± 1100,5.28e-05 ± 1.5e-05,0.0005 ± 9.9e-05,0.00197 ± 0.00041,0.00241 ± 0.00063,0.000188 ± 5.8e-05
C50A C67U,1.84e-05 ± 4e-06,–,–,–,–,–,–
U56G U65C,0.000622 ± 6.2e-05,6800 ± 1000,–,–,0.000169 ± 3.3e-05,0.000366 ± 0.00011,–
C58A C70A,4.48e-05 ± 1.6e-05,–,–,5.32e-05 ± 1.4e-05,6.58e-05 ± 1.4e-05,–,3.09e-05 ± 1.1e-05
U57G C58U,2.34e-05 ± 1.1e-05,–,< 1e-05,–,–,–,< 1e-05
C58U C71U,8.62e-05 ± 5e-06,3200 ± 560,–,–,3.66e-05 ± 7.1e-06,6.56e-05 ± 6e-06,–
C61G C67G C70G,< 1e-05,–,–,–,–,–,–
A53G A64U,0.000128 ± 1e-05,2590 ± 630,–,3.12e-05 ± 9.7e-06,5.65e-05 ± 1.1e-05,0.000103 ± 9.5e-06,–
A53G A64C,0.000207 ± 2.2e-05,1870 ± 470,–,5.95e-05 ± 9.6e-06,0.000109 ± 1.4e-05,0.000181 ± 1.9e-05,–
U55C U65G,0.00367 ± 0.00064,2540 ± 680,4.04e-05 ± 1.8e-05,0.000908 ± 0.00016,0.00177 ± 0.0003,0.00288 ± 0.00054,0.000212 ± 5.2e-05
C50U U57C,< 1e-05,–,< 1e-05,–,–,–,< 1e-05
G51U A52C,< 1e-05,–,< 1e-05,–,< 1e-05,< 1e-05,–
G59U C67U,2.54e-05 ± 5.9e-06,–,–,–,3.07e-05 ± 7.5e-06,–,–
